# Laboratory results published in article PMC7609953, “Expression, Purification, Refolding, and Characterization of a Neverland Protein From Caenorhabditis elegans” (Frontiers in Bioengineering and Biotechnology, 2020).
# B1: Refolded His-tagged neverland protein from Caenorhabditis elegans (His_CeNVD) (enzyme)
# chain: RQLERLKLLRRVGDMPPVFPNGWYCVCESEKLANNQIMEITVLGQFLSLIRSESGAVYITDSYCPHIGANFNIGGRVVRDNCIQCPFHGWIFSAETGKCVEVPYDEGRIPEQAKVTTWPCIERNNNIYLWYHCDGAEPEWEIPEITEITDGFWHLGGRTEHEVMCHIQEIPENGADIAHLNYLHKSAPPVTKGSDIIKTDLSDPQPAVQHVWDGKWEVKSEEDRHCGVMHLNQFMTFWGYKVPLTSSKLVAEQHGPGIVHMLFDFGIWGKGVVFQTVTPEEALLQRVRFRIFSNIPWFFVKFFMTVEAMQFERDVFIWSNKKYIKSPLLVKNDGPIQKHRRWFSQFYTENSPKMLKDGSLSNQAKSIFDW
# Molecular target: the molecule itself
# Experiment: SEC; Superdex200 Increase 10/300 GL, 20 mM Tris-HCl, 150 mM NaCl, 1 mM DTT, pH 8.0, 1 ml/min; aldolase (158 kDa) and conalbumin (75 kDa) as calibration proteins; oligomeric state of the refolded protein
protein,measurement,value
B1,stoichiometry N,3
